{"source": "patent US8962569B2", "about": "“Compositions comprising spp24 peptide fragments” (The Regeants of the University of California, priority 2010, dated 2015)", "molecules": {"B1": {"name": "spp24: recombinant His6-tagged bovine secreted phosphoprotein-24 kDa, residues 24 to 203 (SEQ ID NO:1), expressed in E. coli (protein)", "chain": "MHHHHHHFPVYDYDPASLKEALSASVAKVNSQSLSPYLFRAFRSSVKRVNALDEDSLTMDLEFRIQETTCRRESEADPATCDFQRGYHVPVAVCRSTVRMSAEQVQNVWVRCHWSSSSGSSSSEEMFFGDILGSSTSRNSYLLGLTPDRSRGEPLYEPSREMRRNFPLGNRRYSNPWPRARVNPGFE", "modifications": "N-terminal Met-His6 tag; Synthetic spp24"}, "B2": {"name": "noggin: an inhibitor of BMPs (protein, UniProt Q13253 28-232, looked up)", "Noggin": "QHYLHIRPAPSDNLPLVDLIEHPDPIFDPKEKDLNETLLRSLLGGHYDPGFMATSPPEDRPGGGGGAAGGAEDLAELDQLLRQRPSGAMPSEIKGLEFSEGLAQGKKQRLSKKLRRKLQMWLWSQTFCPVLYAWNDLGSRFWPRYVKVGSCFSKRSCSVPEGMVCKPSKSVHLTVLRWRCQRRGGQRCGWIPIQYPIISECKCSC"}}, "key": {"BMP-2 [1]": {"target": "T1, BMP-2 (Homo sapiens, UniProt P12643)", "T1 sequence (P12643 283-396)": "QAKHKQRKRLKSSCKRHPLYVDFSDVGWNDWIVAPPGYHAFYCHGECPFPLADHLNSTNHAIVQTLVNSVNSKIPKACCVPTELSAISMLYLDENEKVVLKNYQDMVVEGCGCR", "details": "cited from earlier work"}, "BMP-2 [2]": {"target": "T1, BMP-2", "details": "Behnam, 2005; cited from earlier work"}, "[3]": {"test": "Proteolysis of recombinant spp24 by MC3T3-E1 cell extracts (SDS-PAGE, anti-His6 Western blot)", "assay_type": "in vitro ADME, mouse", "details": "37° C.; for time to essentially complete degradation of His6-spp24: presence of 4 mM calcium, MC3T3-E1 cell extracts", "experimental": "MC3T3-E1 mouse preosteoblastic cells were cultured to confluence, harvested by trypsinization, pelleted by centrifugation, and suspended in digestion buffer (100 mM HEPES-HCl, pH 7.5, 12.5 mM KCl, 6.25 mM (3-mercaptoethanol, and 0.2% Triton X-100) plus or minus 4 mM CaCl2 at a protein concentration of 2.4 mg/ml. Recombinant spp24 (residues 23 to 204) was exhaustively dialyzed vs. water, lyophilized, and resuspended at 1 mg/ml in digestion buffer (plus or minus 4 mM CaCl2). Equal volumes of cell extract and spp24 were combined, and incubated at 37° C. for 0 to 24 hours. At the intervals indicated, 4 μl aliquots equivalent to 2 μg spp24 were removed, subjected to SDS-PAGE, and Western blotted using antibody directed against the His6 tag as outlined in detail above."}, "[4]": {"test": "Stability of IMAC-purified His6-spp24 on frozen storage (2D SDS-PAGE)", "assay_type": "physicochemical", "details": "stored frozen (−20° C., 3 months) in 8 M urea in the presence of protease inhibitors", "experimental": "The proteins in representative fractions containing His6-spp24 and its degradation products were separated by 2D SDS-PAGE by the method of O'Farrell (O'Farrell P. H., J. Biol. Chem., 250, 4007-4021 (1975)) (Nancy Kendrick, Ph.D., Kendrick Laboratories, Madison, Wis.) (Behnam, 2005, Behnam, 2006; Behnam, 2002; and Behnam and Murray, 2005). These fractions had been stored at −20° C. for 3 months in urea buffer plus protease inhibitors, resulting in the slow accumulation of degradation products similar to those previously reported (Urist, 1987) that are not abundant in freshly-prepared fractions. The gel was stained with Coomassie Brilliant Blue, and the three major spots of the appropriate molecular weight (<24 kDa) were selected, excised, eluted, reduced in 5% β-mercaptoethanol, alkylated, trypsin digested, and subjected to peptide mass fingerprint analysis by MALDI/ToF MS (Mary Ann Gawinowicz, Ph.D., Protein Chemistry Core Facility, Howard Hughes Medical Institute, Columbia University, New York, N.Y.) to verify their identities and structures (Behnam, 2005, Behnam, 2006, Behnam, 2002; and Behnam and Murray, 2005). Methionines were not oxidized. Peptides with a mass [M+H^+]>1000 Da were analyzed. The peptide fingerprint was compared to those in the SWISS-PRO and NCBI databanks (Behnam, 2005, Behnam, 2006; Behnam, 2002; and Behnam and Murray, 2005). […]"}, "[5]": {"system": "A549 human non-small cell lung cancer cells", "test": "A549 cell proliferation assay (Quick Cell Proliferation Assay)", "assay_type": "cell-based", "details": "48 h", "experimental": "The human non-small cell lung cancer (NSCLC) cell line A549 was used in this study (ATCC, Manassas, Va., USA). A549 cells were maintained in DMEM with 10% FBS and antibiotics (Fisher scientific, Pittsburgh, Pa.) in a humidified incubator with 5% CO2 at 37° C. Cells were not used beyond 10 passages. Cells were plated in serum free medium at a density of 10,000 cells/well and allowed to attach for 24 h. […] Recombinant spp24 was prepared as described previously (Murray E J B, et al., Connect Tiss Res 2007; 48:1-8) and added in serum-free media to final concentrations of 10, 25, 50, 75 μg/ml. Cells were incubated for 48 h before cell proliferation was assessed using Quick Cell Proliferation Assay (BioVision, Mountain View, Calif., USA) according to manufacturer's recommendations. Results were reported as a percentage compared with untreated cells."}, "A549 cells [6]": {"system": "A549 cells", "test": "Subcutaneous implantation of A549 cells and direct measurement of tumor size", "assay_type": "in vivo, SCID mice", "details": "8 weeks after co-injection with A549 cells; rhBMP-2 10 μg, spp24 1000 μg; cells alone 127.4±117.5; mean±SE per method", "excerpt": "(§1) Forty, eight-week-old male SCID mice (weight 23.5 to 29.1 g, mean 27.1 g) were housed under pathogen-free conditions in accordance with the protocol approved by the Chancellor's Animal Research Committee (ARC) at the University of California, Los Angeles. There were four experimental groups in this study, and each group underwent implantation of cells in both a subcutaneous model and an intra-tibial injection. Group I animals received A549 cells alone as a control group. […] Group III received an A549 cells+spp24 (1000 μg). […] There were 10 animals in each group."}, "A549 cells [7]": {"system": "A549 cells", "test": "Intratibial implantation of A549 cells and radiographic analysis", "assay_type": "in vivo, SCID mice", "details": "8 weeks", "excerpt": "as §1"}, "A549 cells [8]": {"system": "A549 cells", "test": "Histologic and histomorphometric analysis of A549 tumors (subcutaneous and tibiae)", "assay_type": "in vivo, SCID mice", "excerpt": "as §1\nAnimals were killed at 8 weeks (or earlier if required by an excessive tumor size) and both the soft tissue tumor and the hind limb were harvested for histological analysis. Soft tissue tumors were fixed in 10% buffered formalin. The tibias were fixed in 10% buffered formalin followed by decalcification in a solution of 10% EDTA for 2 weeks at room temperature with gentle stirring. Longitudinal sections of the proximal tibia were prepared and stained with H&E. For histologic and histomorphometric analyses, all microscopic slides were scanned with a ScanScope GL (Aperio Technologies, Inc., Vista, Calif.) equipped with a 20× objective. The following parameters were considered in the qualitative analysis: amount of tumor cells between cortices from the proximal tibia; anterior and posterior cortical destruction and remodeling; new bone formation within the medullary canal; and anterior/posterior extension of bone formation outside the medullary canal. These histologic findings were graded with the following scale: 0 (none), 1 (mild), 2 (moderate), 3 (intense). Bone volume and tumor volume, expressed as a percentage of total tissue volume (% BV/TV and % TuV/TV, respectively) were quantified in whole-slide images using Spectrum software (Aperio Technologies, Inc. Vista, Calif.)."}, "A549": {"system": "A549", "details": "Feeley, 2006; cited from earlier work"}, "[9]": {"details": "tibiae, grade 0 (none) to 3 (intense), mean"}}, "data": [{"molecule": "BBP: synthetic cyclic 19 amino acid peptide of the TRH1 domain of bovine spp24, CRSTVRMSAEQVQNVWVRC (SEQ ID NO: 8) [reference compound]", "values": [{"measurement": "effect on BMP-2-induced ectopic bone formation in vivo", "setting": "BMP-2 [1]; Behnam, 2005", "result": "enhances the rate and magnitude of BMP-2-induced ectopic bone formation in vivo"}, {"measurement": "binding of BMP-2", "setting": "BMP-2 [2]", "result": "specifically binds BMP-2"}]}, {"molecule": "B1", "values": [{"measurement": "degradation of His6-spp24 by MC3T3-E1 cell extracts", "setting": "[3]; absence of added calcium, 0 to 24 hours", "result": "essentially no degradation was observed until 24 hr"}, {"measurement": "time to essentially complete degradation of His6-spp24", "setting": "[3]", "result": "≤ 2", "unit": "h"}, {"measurement": "time to essentially complete degradation of His6-spp24", "setting": "[3]; listed as His6-spp24", "result": "about 2 hours"}, {"measurement": "susceptibility to proteolysis on storage", "setting": "[4]", "result": "highly susceptible to proteolysis"}, {"measurement": "effect on A549 cell proliferation", "setting": "[5]; agent alone, serum-free media, rhBMP-2 0-500 ng/ml, spp24 10-75 μg/ml", "result": "slight dose-dependent inhibition of proliferation"}, {"measurement": "effect of spp24 on BMP-stimulated A549 proliferation", "setting": "[5]; spp24 added to the BMP treatment", "result": "attenuation of the BMP affect at all doses"}, {"measurement": "subcutaneous tumor volume", "setting": "A549 cells [6]", "result": "12.6±21.6", "unit": "mm3"}, {"measurement": "animals with minimal new bone formation", "setting": "A549 cells [7]", "result": "three of ten"}, {"measurement": "average radiographic score", "setting": "A549 cells [7]; score 0 normal to 3 obliteration of two cortices, cells alone 2.1", "result": "0.5±0.6"}, {"measurement": "% TuV/TV (tumor volume/total volume)", "setting": "A549 cells [8]; longitudinal section of the proximal tibia at midline, mean", "result": "insufficient"}, {"measurement": "tumor cells in histological specimens", "setting": "A549 cells [8]; subcutaneous and intratibial sites, 8 weeks", "result": "only a few scattered tumor cells"}, {"measurement": "% BV/TV (bone volume/total volume)", "setting": "A549 cells [8]; tibia section, mean", "result": "insufficient"}, {"measurement": "Anterior cortex destruction (2)", "setting": "A549 cells [8]; [9]", "result": 0}, {"measurement": "Extension of bone formation outside the medullary canal (5)", "setting": "A549 cells [8]; [9]", "result": 0}, {"measurement": "New bone formation within the medullary canal (4)", "setting": "A549 cells [8]; [9]", "result": 0}, {"measurement": "Posterior cortex destruction (3)", "setting": "A549 cells [8]; [9]", "result": 0}, {"measurement": "Amount of tumor cells between cortices (1)", "setting": "A549 cells [8]; tibiae, grade 0 (none), 1 (mild), 2 (moderate), 3 (intense), mean", "result": 0}, {"measurement": "effect on BMP-2 induced bone formation", "setting": "BMP-2 [1]; ectopic bone forming assay (Sintuu, 2008)", "result": "strongly inhibits BMP-2 induced bone formation"}]}, {"molecule": "B2", "values": [{"measurement": "effect on tumor growth", "setting": "A549", "result": "reduce tumor growth"}]}]}
